Legend:
[1] = biological target: fibroblast activation protein (FAP) on transfected HT1080 cells (UniProt Q12884 1-760, limits assumed); assay: cell-based or functional assay
[2] = biological target: T1, EGFR on EGFR-positive tumor cell lines (UniProt P00533 25-1210, limits assumed); assay: flow cytometry, Colo205 cells
T1 construct: whole, on cells; The cell line is named under assay or readout; also called EGFR+ cell lines

EGFR-Fc = biological target: T2, EGFR-Fc (UniProt P00533 25-645); assay: ELISA, EGFR-Fc
T2 construct: also called purified EGFR-Fc; not shown: Fc part

[3] = biological target: T1, EGFR on EGFR-positive tumor cell lines; assay: flow cytometry, HCT116 cells
TRAIL-R1-Fc = biological target: T3, TRAIL-R1-Fc (human, UniProt O00220 24-239); assay: ELISA, coated DR4-Fc (3 µg/ml), anti-Flag-HRP detection
T3 construct: extracellular domain; also called DR4-Fc; not shown: Fc-part

TRAIL-R2-Fc = biological target: T4, TRAIL-R2-Fc (human, UniProt O14763 56-210); assay: ELISA, coated DR5-Fc (3 µg/ml), anti-Flag-HRP detection
T4 construct: extracellular domain; also called DR5-Fc; DR5-Fc fusion protein; not shown: Fc-part

[4] = biological target: T1, EGFR on EGFR-positive tumor cell lines; assay: cell-based or functional assay
DcR2-Fc = biological target: T5, DcR2-Fc (human, UniProt Q9UBN6 56-211); assay: ELISA, coated DcR2-Fc (3 µg/ml), anti-Flag-HRP detection
T5 construct: extracellular domain; also called TRAIL-R4-Fc; not shown: Fc-part
T5 sequence (looked up): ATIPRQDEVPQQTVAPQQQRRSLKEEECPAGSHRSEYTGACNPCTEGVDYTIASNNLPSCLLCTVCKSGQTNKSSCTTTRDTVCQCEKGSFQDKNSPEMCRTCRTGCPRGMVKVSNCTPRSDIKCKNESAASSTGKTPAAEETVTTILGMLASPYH

B1: Db anti-FAP-Glyco-scTRAIL3-FAVSGAA (other)
chain: LEASDYKDDDDKGTGQVQLVQSGAEVKKPGASVKVSCKASGYTFTENIIHWVRQAPGQGLEWMGWFHPGSGSIKYNEKFKDRVTMTADTSTSTVYMELSSLRSEDTAVYYCARHGGTGRGAMDYWGQGTLVTVSSGGGGSDIQMTQSPSSLSASVGDRVTITCRASKSVSTSAYSYMHWYQQKPGKAPKLLIYLASNLESGVPSRFSGSGSGTDFTLTISSLQPEDFATYYCQHSRELPYTFGQGTKLEIKRAAAGNGTSNGTSEFGGAAAHITGTRGRSNTLSSPNSKNEKALGRKINSWESSRSGHSFLSNLHLRNGELVIHEKGFYYIYSQTYFRFQEEIKENTKNDKQMVQYIYKYTSYPDPILLMKSARNSCWSKDAEYGLYSIYQGGIFELKENDRIFVSVTNEHLIDMDHEASFFGAFAVSGAAAHITGTRGRSNTLSSPNSKNEKALGRKINSWESSRSGHSFLSNLHLRNGELVIHEKGFYYIYSQTYFRFQEEIKENTKNDKQMVQYIYKYTSYPDPILLMKSARNSCWSKDAEYGLYSIYQGGIFELKENDRIFVSVTNEHLIDMDHEASFFGAFAVSGAAAHITGTRGRSNTLSSPNSKNEKALGRKINSWESSRSGHSFLSNLHLRNGELVIHEKGFYYIYSQTYFRFQEEIKENTKNDKQMVQYIYKYTSYPDPILLMKSARNSCWSKDAEYGLYSIYQGGIFELKENDRIFVSVTNEHLIDMDHEASFFGAFAVS
modifications: 16 aa peptide linker with two N-glycosylation sites
For B1, the “EC50 of cytotoxicity on HT1080 FAP+ cells, competing with excess anti-FAP IgG” value [1] was 0.04 nM, the “EC50 of cytotoxicity on HT1080 FAP+ cells, with bortezomib, competing conditions” value [1] was 0.0041 nM and the “EC50 of cytotoxicity on HT1080 FAP+ cells, with bortezomib, non-competing conditions” value [1] was 0.002 nM. The “EC50 of cytotoxicity on HT1080 FAP+ cells, without αFAP IgG” value [1] was 0.029 nM.

B2: anti-EGFR IgG HC-scTRAIL3-FAVSGAA (other)
heavy: ASDYKDDDDKGAEVQLVESGGGLVQPGGSLRLSCAASGFSLTNYGVHWVRQAPGKGLEWLGVIWSGGNTDYNTPFTSRFTISRDNSKNTLYLQMNSLRAEDTAVYYCARALTYYDYEFAYWGQGTTVTVSSASTKGPSVFPLAPSSKSTSGGTAALGCLVKDYFPEPVTVSWNSGALTSGVHTFPAVLQSSGLYSLSSVVTVPSSSLGTQTYICNVNHKPSNTKVDKKVEPKSCDKTHTCPPCPAPPVAGPSVFLFPPKPKDTLMISRTPEVTCVVVDVSHEDPEVKFNWYVDGVEVHNAKTKPREEQYNSTYRVVSVLTVLHQDWLNGKEYKCKVSNKGLPSSIEKTISKAKGQPREPQVYTLPPSRDELTKNQVSLTCLVKGFYPSDIAVEWESNGQPENNYKTTPPVLDSDGSFFLYSKLTVDKSRWQQGNVFSCSVMHEALHNHYTQKSLSLSPGKAAGNGTSNGTSEFGGAAAHITGTRGRSNTLSSPNSKNEKALGRKINSWESSRSGHSFLSNLHLRNGELVIHEKGFYYIYSQTYFRFQEEIKENTKNDKQMVQYIYKYTSYPDPILLMKSARNSCWSKDAEYGLYSIYQGGIFELKENDRIFVSVTNEHLIDMDHEASFFGAFAVSGAAAHITGTRGRSNTLSSPNSKNEKALGRKINSWESSRSGHSFLSNLHLRNGELVIHEKGFYYIYSQTYFRFQEEIKENTKNDKQMVQYIYKYTSYPDPILLMKSARNSCWSKDAEYGLYSIYQGGIFELKENDRIFVSVTNEHLIDMDHEASFFGAFAVSGAAAHITGTRGRSNTLSSPNSKNEKALGRKINSWESSRSGHSFLSNLHLRNGELVIHEKGFYYIYSQTYFRFQEEIKENTKNDKQMVQYIYKYTSYPDPILLMKSARNSCWSKDAEYGLYSIYQGGIFELKENDRIFVSVTNEHLIDMDHEASFFGAFAVS
light: DIQLTQSPSFLSASVGDRVTITCRASQSIGTNIHWYQQKPGKAPKLLIKYASESISGVPSRFSGSGSGTEFTLTISSLQPEDFATYYCQQNNNWPTTFGAGTKLEIKRTVAAPSVFIFPPSDEQLKSGTASVVCLLNNFYPREAKVQWKVDNALQSGNSQESVTEQDSKDSTYSLSSTLTLSKADYEKHKVYACEVTHQGLSSPVTKSFNRGEC
notes: scTRAIL3-FAVSGAA at the C-terminus of the heavy chain; also called IgG-heavy chain (HC)-scTRAIL3
In the case of B2, the EC50 [2] is reported as 0.081 nM, the EC50 (EGFR-Fc) is reported as 0.343 nM and the EC50 [3] is reported as 0.118 nM.

B3: anti-EGFR IgG LC-scTRAIL3-FAVSGAA (other)
heavy: ASDYKDDDDKGAEVQLVESGGGLVQPGGSLRLSCAASGFSLTNYGVHWVRQAPGKGLEWLGVIWSGGNTDYNTPFTSRFTISRDNSKNTLYLQMNSLRAEDTAVYYCARALTYYDYEFAYWGQGTTVTVSSASTKGPSVFPLAPSSKSTSGGTAALGCLVKDYFPEPVTVSWNSGALTSGVHTFPAVLQSSGLYSLSSVVTVPSSSLGTQTYICNVNHKPSNTKVDKKVEPKSCDKTHTCPPCPAPPVAGPSVFLFPPKPKDTLMISRTPEVTCVVVDVSHEDPEVKFNWYVDGVEVHNAKTKPREEQYNSTYRVVSVLTVLHQDWLNGKEYKCKVSNKGLPSSIEKTISKAKGQPREPQVYTLPPSRDELTKNQVSLTCLVKGFYPSDIAVEWESNGQPENNYKTTPPVLDSDGSFFLYSKLTVDKSRWQQGNVFSCSVMHEALHNHYTQKSLSLSPGK
light: DIQLTQSPSFLSASVGDRVTITCRASQSIGTNIHWYQQKPGKAPKLLIKYASESISGVPSRFSGSGSGTEFTLTISSLQPEDFATYYCQQNNNWPTTFGAGTKLEIKRTVAAPSVFIFPPSDEQLKSGTASVVCLLNNFYPREAKVQWKVDNALQSGNSQESVTEQDSKDSTYSLSSTLTLSKADYEKHKVYACEVTHQGLSSPVTKSFNRGECAAGNGTSNGTSEFGGAAAHITGTRGRSNTLSSPNSKNEKALGRKINSWESSRSGHSFLSNLHLRNGELVIHEKGFYYIYSQTYFRFQEEIKENTKNDKQMVQYIYKYTSYPDPILLMKSARNSCWSKDAEYGLYSIYQGGIFELKENDRIFVSVTNEHLIDMDHEASFFGAFAVSGAAAHITGTRGRSNTLSSPNSKNEKALGRKINSWESSRSGHSFLSNLHLRNGELVIHEKGFYYIYSQTYFRFQEEIKENTKNDKQMVQYIYKYTSYPDPILLMKSARNSCWSKDAEYGLYSIYQGGIFELKENDRIFVSVTNEHLIDMDHEASFFGAFAVSGAAAHITGTRGRSNTLSSPNSKNEKALGRKINSWESSRSGHSFLSNLHLRNGELVIHEKGFYYIYSQTYFRFQEEIKENTKNDKQMVQYIYKYTSYPDPILLMKSARNSCWSKDAEYGLYSIYQGGIFELKENDRIFVSVTNEHLIDMDHEASFFGAFAVS
notes: scTRAIL3-FAVSGAA at the C-terminus of the kappa light chain through a 15 aa peptide with two N-glycosylation sites; also called IgG-light chain (LC)-scTRAIL3
For B3, the EC50 [2] was 0.148 nM, the EC50 (EGFR-Fc) was 0.46 nM and the EC50 [3] was 0.181 nM.

B4: anti-EGFR IgG LC/HC-scTRAIL3-FAVSGAA (other)
heavy: B2 heavy
light: B3 light
notes: scTRAIL3-FAVSGAA on both light and heavy chains (tetrameric form)
Binder B4 has an EC50 [2] of 0.146 nM, an EC50 (EGFR-Fc) of 0.315 nM and an EC50 [3] of 0.091 nM.

B5: Db10-Glyco-scTRAIL3-FAVSGAA (other)
chain: LEASDYKDDDDKGAEVQLVESGGGLVQPGGSLRLSCAASGFSLTNYGVHWVRQAPGKGLEWLGVIWSGGNTDYNTPFTSRFTISRDNSKNTLYLQMNSLRAEDTAVYYCARALTYYDYEFAYWGQGTTVTVSSGGGGSGGGGSDIQLTQSPSFLSASVGDRVTITCRASQSIGTNIHWYQQKPGKAPKLLIKYASESISGVPSRFSGSGSGTEFTLTISSLQPEDFATYYCQQNNNWPTTFGAGTKLEIKRAAAGNGTSNGTSEFGGAAAHITGTRGRSNTLSSPNSKNEKALGRKINSWESSRSGHSFLSNLHLRNGELVIHEKGFYYIYSQTYFRFQEEIKENTKNDKQMVQYIYKYTSYPDPILLMKSARNSCWSKDAEYGLYSIYQGGIFELKENDRIFVSVTNEHLIDMDHEASFFGAFAVSGAAAHITGTRGRSNTLSSPNSKNEKALGRKINSWESSRSGHSFLSNLHLRNGELVIHEKGFYYIYSQTYFRFQEEIKENTKNDKQMVQYIYKYTSYPDPILLMKSARNSCWSKDAEYGLYSIYQGGIFELKENDRIFVSVTNEHLIDMDHEASFFGAFAVSGAAAHITGTRGRSNTLSSPNSKNEKALGRKINSWESSRSGHSFLSNLHLRNGELVIHEKGFYYIYSQTYFRFQEEIKENTKNDKQMVQYIYKYTSYPDPILLMKSARNSCWSKDAEYGLYSIYQGGIFELKENDRIFVSVTNEHLIDMDHEASFFGAFAVS
modifications: glycosylated connecting peptide
notes: also called Db10hu225-Glyco-scTRAIL3-FAVSGAA; Db10-glyco-scTRAIL3-FAVSGGA
B5 was tested, and the binding result (TRAIL-R1-Fc) was “binds”, the binding result (TRAIL-R2-Fc) was “binds” and the “EC50 of cell death induction, Colo205, with Bortezomib” value [4] was 0.013 nM. The “EC50 of cell death induction, Colo205, with Bortezomib + Cetuximab” value [4] was 0.066 nM, the “EC50 of cell death induction, HCT116, with Bortezomib” value [4] was 0.039 nM and the “EC50 of cell death induction, HCT116, with Bortezomib + Cetuximab” value [4] was 0.298 nM. The “EC50 of cell death induction, HT1080, with Bortezomib” value [4] was 0.0007 nM, the “EC50 of cell death induction, HT1080, with Bortezomib + Cetuximab” value [4] was 0.008 nM and the binding result (DcR2-Fc) was “binds”.

From patent US20180094059A1 (UNIVERSITAT STUTTGART, published 2018)
